Test results as given in patent publication US20170145113A1 (Genentech, published 2017).

Key:
h15H6.v1 LC-S49Y variant = experiment: phage competition ELISA: phage-displayed Fab preincubated with soluble murine HtrA1, unbound phage captured on coated huHtrA1-PD-His, OD450
h15H6.v1 HC-A71R variant = experiment: as above
[1] = molecular target: T1, murine HtrA3 protease domain (murine, UniProt Q9D236 135-350, limits assumed); experiment: ELISA, hybridoma clone
T1 construct: domain: PD (protease domain); also called muHtrA3-PD; murine HtrA3-PD
T1 sequence (looked up): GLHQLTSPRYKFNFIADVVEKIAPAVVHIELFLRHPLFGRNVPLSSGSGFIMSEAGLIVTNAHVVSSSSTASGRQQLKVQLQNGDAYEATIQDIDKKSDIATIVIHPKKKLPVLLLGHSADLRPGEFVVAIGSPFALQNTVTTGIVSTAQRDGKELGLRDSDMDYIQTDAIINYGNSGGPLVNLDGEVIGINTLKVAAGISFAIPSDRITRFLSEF

[2] = molecular target: T2, murine HtrA4 protease domain (murine, UniProt A2RT60 160-371, limits assumed); experiment: ELISA, hybridoma clone
T2 construct: domain: PD (protease domain); also called muHtrA4-PD; murine HtrA4-PD
T2 sequence (looked up): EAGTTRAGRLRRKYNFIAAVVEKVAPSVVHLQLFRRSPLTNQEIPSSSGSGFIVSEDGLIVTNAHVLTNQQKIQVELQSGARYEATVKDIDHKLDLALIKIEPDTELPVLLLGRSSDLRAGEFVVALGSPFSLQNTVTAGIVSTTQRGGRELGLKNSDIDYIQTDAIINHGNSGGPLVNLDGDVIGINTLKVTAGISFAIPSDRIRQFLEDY

[3] = molecular target: T3, His-tagged recombinant murine HtrA1 protease domain (murine, UniProt Q9R118 156-367); experiment: ELISA, antigen coated on plate, hybridoma clone
T3 construct: His-tagged protease domain; also called muHtrA1-PD-His; muHtrA1-PD
Method: (§1) ELISA was performed according to a standard protocol. Briefly, 96-well microliter ELISA plates (Greiner, Germany) were coated with 100 μl/well muHtrA1-PD-His or huHtrA1-PD-His (SEQ ID NO: 154) at 2 μg/ml in 0.05 M carbonate buffer (pH 9.6) at 4° C. overnight. After washing three times with wash buffer (0.05% TWEEN®20 in PBS, Sigma), plates were blocked with 100 μl ELISA assay diluents with BSA. 100 μl of cultured supernatants or diluted purified monoclonal antibodies (mAbs) were added and incubated for 1 h at room temperature. The plates were washed three times and incubated with HRP-conjugated goat anti-mouse IgG Fc for 1 h. After washing three times, bound enzyme was detected by addition of 100 μl/well of the TMB substrate (BioFX Laboratories) for 5 min. The reactions were stopped by adding 100 μl/well of stop reagent (BioFX Laboratories), followed by detection of color at absorbance 650 nm (A_{650 nm}).

[4] = molecular target: T4, His-tagged human HtrA1 protease domain (human, UniProt Q92743 161-367); experiment: ELISA, antigen coated on plate, hybridoma clone
T4 construct: His-tagged protease domain; also called huHtrA1-PD-His; huHtrA1-PD
T4 sequence (Q92743 other isoform, or with tags, fused parts or gaps limits assumed): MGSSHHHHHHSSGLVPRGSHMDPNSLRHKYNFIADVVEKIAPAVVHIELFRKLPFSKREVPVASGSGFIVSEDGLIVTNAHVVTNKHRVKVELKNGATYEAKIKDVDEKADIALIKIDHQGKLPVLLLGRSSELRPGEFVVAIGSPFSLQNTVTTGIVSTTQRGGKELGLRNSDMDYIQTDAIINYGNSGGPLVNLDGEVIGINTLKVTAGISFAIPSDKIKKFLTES
Method: as §1

[5] = molecular target: purified full-length human HtrA1 (human, UniProt Q92743 23-480); experiment: cell-based or functional assay
purified full-length human HtrA1, sequence (Q92743 23-480): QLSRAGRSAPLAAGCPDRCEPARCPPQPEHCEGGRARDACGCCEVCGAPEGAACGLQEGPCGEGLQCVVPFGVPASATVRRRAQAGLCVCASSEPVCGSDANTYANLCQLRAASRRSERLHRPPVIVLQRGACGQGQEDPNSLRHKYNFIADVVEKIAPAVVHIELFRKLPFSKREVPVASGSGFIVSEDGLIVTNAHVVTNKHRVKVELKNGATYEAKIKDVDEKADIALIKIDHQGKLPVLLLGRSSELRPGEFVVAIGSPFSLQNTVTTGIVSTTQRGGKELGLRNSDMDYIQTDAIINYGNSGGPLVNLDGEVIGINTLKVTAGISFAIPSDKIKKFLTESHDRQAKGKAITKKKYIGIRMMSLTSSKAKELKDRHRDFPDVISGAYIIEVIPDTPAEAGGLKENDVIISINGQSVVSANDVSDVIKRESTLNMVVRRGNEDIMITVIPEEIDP

[6] = molecular target: purified full-length murine HtrA1 (murine, UniProt Q9R118 23-480); experiment: cell-based or functional assay
[7] = molecular target: T3, His-tagged recombinant murine HtrA1 …; experiment: BIACORE SPR, single cycle kinetic analysis; ligand streptavidin-captured biotin murine HtrA1, analyte Fab
Text: (§2) To determine the binding affinity of anti-HtrA1 Fabs by single-cycle kinetics, (SPR) measurement with a BIACORE™ T100 instrument was used. Briefly, a series S sensor chip CM5 was activated with 1-ethyl-3-(3-dimethylamino-propyl)carbodiimide hydrochloride (EDC) and N-hydroxysuccinimide (NHS) reagents according to the supplier's instructions, and streptavidin (Pierce) was coupled to achieve approximately 2500 response units (RU), followed by blocking un-reacted groups with 1 M ethanolamine.
(§3) For kinetics measurements, biotinylated human or murine HtrA1-PD-His was first injected at 10 μl/min flow rate to capture approximately 150 RU at 3 different flow cells (FC), except for FC1 (which served as a reference), and then 5-fold serial dilutions of anti-HtrA1 Fab in HBS-P buffer (0.01M HEPES pH 7.4, 0.15 M NaCl, 0.005% surfactant P20) from low (0.48 nM) to high (300 nM) were injected (flow rate: 30 μl/min) one after the other in the same cycle with no regeneration between injections. The sensorgram was recorded and subject to reference and buffer subtraction before evaluating by BIACORE™ T100 Evaluation Software (version 2.0). Association rates (kₒₙ) and dissociation rates (koff) were calculated using a simple one-to-one Langmuir binding model. The equilibrium dissociation constant (KD) was calculated as the ratio koff/kₒₙ.

[8] = molecular target: T4, His-tagged human HtrA1 protease domain; experiment: BIACORE SPR, single cycle kinetic analysis; ligand streptavidin-captured biotin human HtrA1, analyte Fab
Text: as §2, §3

[9] = molecular target: T3, His-tagged recombinant murine HtrA1 …; experiment: SPR (BIACORE T100), single-cycle kinetics; biotinylated HtrA1-PD-His on streptavidin, Fab injected
Text: as §2, §3

[10] = molecular target: T4, His-tagged human HtrA1 protease domain; experiment: as above
Text: as §2, §3

[11] = molecular target: T4, His-tagged human HtrA1 protease domain; experiment: SPR (BIACORE), Fab

His-tagged recombinant murine HtrA1 protease domain (from UniProt Q9R118 156-367) (enzyme)
IC50 (read off the curve) (h15H6.v1 LC-S49Y variant): 0.6 nM | IC50 (read off the curve) (h15H6.v1 HC-A71R variant): 0.1 nM

B1: anti-HtrA1 hybridoma antibody clone 3A5 (antibody, V domains shown)
VH: DVHLVESGGGLVRPGGSRKLSCEASGFTFSSFGMHWVRQAPEKGLEWVAFITSDSSTIYYADTVKGRFTISRDNPKNTLFLQMTSLRSEDTAMYYCTRSGDDYLDYWGQGTTLTVSS
VL: DIVLTQSPASLAVSLGQRATISCRASQSVSTSSSSYMHWYQQKPGQPPKVFIKYASNLESGVPARFSGSGSGTDFTLSIHPVEEEDTATYYCQHSWEIPFTFGGGTKLEIK
binding result [1]: no binding | binding result [2]: no binding | binding result [3]: binds | binding result [4]: binds

B2: anti-HtrA1 hybridoma antibody clone 20E2 (antibody, V domains shown)
VH: EVKLVESGGGLVQPGGSLKLSCAASGFTFSSYIMSWVRQTPEKRLEWVAYISNGGGTTYYPDTIKGRFTISRDNAKNTLYLQMNTLKSEDTAIYFCARQNFRSDGSSMDYWGQGTSVTVSS
VL: NIVLTQSPASLAVSLGQRATISCRASESVDTSGRSFMHWYQQKPGQPPRLLIYLASKLESGVPARFSGSGSRTDFTLTIDPVEADDAATYYCQQNNEDPYTFGGGTNLEIK
binding result [1]: no binding | binding result [2]: no binding | binding result [3]: binds | binding result [4]: binds

B3: anti-HtrA1 hybridoma antibody clone 15H6 (antibody, V domains shown)
VH: QVQLQQSGAELVRPGASVTLSCKASGYTFTDSEMHWVKQTPVHGLEWIGGVDPETDGAAYNQKFKGKATLTADKSSSTAYMELRSLTSEDSAVYYCTRGYDYDYALDYWGQGTSVTVSS
VL: QIVLSQSPAILSASPGEKVTMTCRASSSVNFIHWYQQKPGSSPKPWISATSNLASGVPPRFSGSGSGTSYSLTISRVEAEDAATYYCQQWSSNPWTFGGGTKLEIK
notes: Murine mIgG2a, from hybridoma or recombinant from 293 cells; also called m15H6
binding result [1]: no binding | binding result [2]: no binding | IC50, FRET blocking assay, recombinant antibody from 293 cells [5]: ~0.7 nM | IC50, FRET-based blocking assay (H2-Opt cleavage) [5]: 0.7 nM | fold improvement of IC50 against YW505.94 [5]: ~2 fold | IC50, FRET-based blocking assay (H2-Opt cleavage) [6]: 1.1 nM | fold improvement of IC50 against YW505.94 [6]: ~5 fold

B4: h19B12.v1 Fab (Fab, V domains shown)
VH: EVQLVESGGGLVQPGGSLRLSCAASGFTFSSYIMSWVRQAPGKGLEWVAYISNGGGTTYYSDTIKGRFTISRDNSKNTLYLQMNSLRAEDTAVYYCARQNFRSDGSSMDYWGQGTLVTVSS
VL: DIVMTQSPDSLAVSLGERATINCRASESVDSYGKSFMHWYQQKPGQPPKLLIYLASKLESGVPDRFSGSGSGTDFTLTISSLQAEDVAVYYCQQNNEDPYTFGQGTKVEIK
notes: Tested in Fab format
Kd [7]: 6.65 nM | koff [7]: 0.00134 s⁻¹ | kon [7]: 201000 M⁻¹ s⁻¹ | Kd [8]: 24 nM | koff [8]: 0.00345 s⁻¹ | kon [8]: 144000 M⁻¹ s⁻¹ | Kd [9]: 7.6 nM | koff [9]: 0.00091 s⁻¹ | kon [9]: 120000 M⁻¹ s⁻¹ | Kd [10]: 10.7 nM | koff [10]: 0.0016 s⁻¹ | kon [10]: 150000 M⁻¹ s⁻¹ | fold improvement of KD against m19B12 [11]: ~2 fold
